Experimental data: paper PMC6237739

B1: add Asw full-length (112 nt) (structured_RNA)
RNA: GCUUCAUAUAAUCCUAAUGAUAUGGUUUGGGAGUUUCUACCAAGAGCCUUAAACUCUUGAUUAUGAAGUCUGUCGCUUUAUCCGAAAUUUUAUAAAGAGAAGACUCAUGAAU

How the values were obtained:
rS1-D34 = rS1-D34 (Vibrio vulnificus CMCP6, UniProt A0A3Q0L6Y6); experiment: NMR titration
rS1-D5 = rS1-D5 (Vibrio vulnificus CMCP6, UniProt A0A3Q0L6Y6 364-434); experiment: EMSA
rS1-D3 = rS1-D3 (Vibrio vulnificus CMCP6, UniProt A0A3Q0L6Y6 192-260); experiment: EMSA
rS1-D4 = rS1-D4 (Vibrio vulnificus CMCP6, UniProt A0A3Q0L6Y6 277-347); experiment: EMSA
rS1 full-length = rS1 full-length (Vibrio vulnificus CMCP6, UniProt A0A3Q0L6Y6); experiment: EMSA
rS1-D45 = rS1-D45 (Vibrio vulnificus CMCP6, UniProt A0A3Q0L6Y6); experiment: EMSA

Binder | Kd (rS1-D34) | binding result (rS1-D5) | binding result (rS1-D3) | binding result (rS1-D4) | Kd (rS1 full-length) | binding result (rS1-D45)
UCAUGAAU (ssRNA) [Asw-8] | 197 ± 50 µM |  |  |  |  | 
ACUCAUGAAU (ssRNA) [Asw-10] | 57 ± 6 µM |  |  |  |  | 
B1 |  | no binding | no binding | no binding | 3 ± 1 µM | no binding
